The series deals with the molecule itself. The experiment in a line: AUC; sedimentation velocity, 50,000 rpm, 20°C, PBS 1X pH 7.4, protein 5-50 µM (15 µM in Figure 3); c(s) analysis with SEDFIT; oligomeric state of the protein with itself.

Residue numbers refer to the chain shown, from its start. Numbers in names are those of the source.

B1: L46A human Macrophage Migration Inhibitory Factor (natural protein, UniProt P14174 1-115, looked up)
chain: MPMFIVNTNVPRASVPDGFLSELTQQLAQATGKPPQYIAVHVVPDQAMAFGGSSEPCALCSLHSIGKIGGAQNRSYSKLLCGLLAERLRISPDRVYINYYDMNAANVGWNNSTFA
notes: initiator methionine cleaved, measured mass 12303 g/mol; numbers count on: the mature protein starting at Pro-1 (without the initiator methionine); No tag is named; also called L46A huMIF; L46A MIF; source: more than 95% pure
As to B1, the stoichiometry N – broadly, the number of molecules, sites or subunits per partner or assembly – turned out to be 3.

B2: L46F human Macrophage Migration Inhibitory Factor (natural protein, UniProt P14174 1-115, looked up)
chain: B1 chain with A47F
notes: initiator methionine cleaved, measured mass 12379 g/mol; numbers count on: the mature protein starting at Pro-1 (without the initiator methionine); No tag is named; also called L46F huMIF; L46F MIF; source: more than 95% pure
B2: the “stoichiometry N” value stood at 3.

B3: L46G human Macrophage Migration Inhibitory Factor (natural protein, UniProt P14174 1-115, looked up)
chain: B1 chain with A47G
notes: initiator methionine cleaved, measured mass 12289 g/mol; numbers count on: the mature protein starting at Pro-1 (without the initiator methionine); No tag is named; also called L46G huMIF; L46G MIF; source: more than 95% pure
Turning to B3, the “stoichiometry N” value turned out to be 3.

Values taken from PMC3448610, “Characterization of Molecular Determinants of the Conformational Stability of Macrophage Migration Inhibitory Factor: Leucine 46 Hydrophobic Pocket” (PLoS ONE, 2012).
